Experimental findings from the RNAGym collection of RNA variant scans (doi:10.1073/pnas.2313332121) are described below.

B1: TPR t1 (parent)
chain: GACCAAUCUGCCCUCAGAGCUCGAGAACAUCUUCGGAUGCAGAGGAGGCAGGCUUCGGUGGCGCGAUAGCGCCAACGUCCUCAACCUCCAAUGCAUCCCACCACAUGAUGAUGCCUGAAGAGCCUUGGUUUUUUG

In the series the parent is B1. Nature of the series: polymerase ribozyme fitness, log enrichment relative to wild type (log ratio); higher = more active; in vitro selection for triplet polymerase activity. The method, boiled down: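 A heterodimeric triplet polymerase ribozyme had each of its subunits mutagenized by PCR into a library, which was transcribed. One round of in vitro selection, done in triplicate, annealed each library with a biotinylated primer, its partner subunit and triplets, then incubated it frozen at −7 °C before gel excision of extended constructs, streptavidin-bead capture and RT-PCR. Fitness is the logarithm of genotype enrichment relative to wild-type enrichment, based on Illumina sequencing of inputs and outputs and inverse-variance-weighted replicate averages. A base-2 logarithm is used, and genotypes were kept only with ≥10 input reads and ≥1 read per output.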
For the variant C3G C15A C22G C115U, the “polymerase ribozyme fitness (log ratio)” value is -4.4.
Next, C3U C13U C34U G69U C85U: -2.76; C3A C28U G63C: -3.87; C3G U7G C15U U55G C56U G128U: -1.45.
Next, C3G G60U U87A: -2.32.
Take C3A C85U A90U C114U G127C: the “polymerase ribozyme fitness (log ratio)” value was -2.77.
Under C3A C15U C40U C88U stands -3.42; under C3U A16U G71A, -2.38.
Take C3G G47U G48C C82G C123U: the “polymerase ribozyme fitness (log ratio)” value was -1.92.
For the variant C3A G10U U38A C49U C82U G128A U131G, the “polymerase ribozyme fitness (log ratio)” value is -1.74.
For the variant C3G C102U C123A, the “polymerase ribozyme fitness (log ratio)” value was -2.99.
Next, C3G C8G C12U C79U G110C U130A: -5.96.
In the case of A2U G113U, the “polymerase ribozyme fitness (log ratio)” value was -4.15.
Under A2U G113C stands -3.73.
Under C3A G36A C64U C123G stands -0.723.
Next, C3G G42C G44U G63U C123A G128C: -3.73; C3G C13U C56A: -2.3; A2U G110U: -2.47.
Take C3A C49A A75U C123U: the “polymerase ribozyme fitness (log ratio)” value was 0.0976.
Under C3A C13A C20A A66G G117A stands -5.73; under C3A U33A G48U A121C C124G, -4.93; under C3U C8G G10U G45C G71U C85A, -2.2.
Next, C3A C104U: -0.516; C3A C11G G48U C114A: -2.07.
C3G C49U U78A C115A: the “polymerase ribozyme fitness (log ratio)” value is -3.75.
On to C3U C11U C13G G63C U116C, for which the “polymerase ribozyme fitness (log ratio)” value is -4.43.
Next, A2U U32C G48A C49G C64U: -3.23; C3A U9G G17C U54G G69U A105C G117A: -5.55.
On to C3A G25U G58C U59G C97U C123A G135U, for which the “polymerase ribozyme fitness (log ratio)” value is -6.86.
Under C3U C11A C73G A75U C99G A103U A121G stands -7.22; under C3A C8A C70G, -3.71; under C3G C22A G69A C124G G128C, -4.83.
Under C3U C53A C56A G69U stands -0.204; under C3G G60C C86A, -2.81.
On to C3A C8G C88U A90C G110A U132A, for which the “polymerase ribozyme fitness (log ratio)” value is -2.77.
With C3A G45U G57U C82U C104A C123A, the “polymerase ribozyme fitness (log ratio)” value is -4.01.
Next, C3A G48A C72U A84G: -1.58.
Turning to C3U C15A G52C, the “polymerase ribozyme fitness (log ratio)” value is -3.65.
Turning to C3A U32A C64G C99A, the “polymerase ribozyme fitness (log ratio)” value is -7.73.
As to C3A G45A, the “polymerase ribozyme fitness (log ratio)” value is -2.42.
Under C3A A5C G48A C101A G122A stands -1.86; under C3A C4G G10A G61U A74C C123G, -4.94.
Under C3A C64U G71A G110U U129G stands -6.8; under C3G C11G G19U G63A G120A, -5.7; under C3U C56U C115U G127U, -3.57.
For C3A C56G G61A U81A U131C, the “polymerase ribozyme fitness (log ratio)” value is -4.05.
C3U A6C U55C: the “polymerase ribozyme fitness (log ratio)” value is -1.74.
Next, C3G C49A G57U C64U G120U G128U: -1.81.
Under C3U A6U G52U A111U A118U stands -4.02; under C3G C102A, -4.71; under C3A A46U A50U G57A, -4.95.
Next, C3G G128C: -0.539.
As for C3U A83U, the “polymerase ribozyme fitness (log ratio)” value is -0.257.
For C3A C8A C12A G61A, the “polymerase ribozyme fitness (log ratio)” value is -1.5.
Under C3U C15U G39C stands -2.34; under C3A C8A C12G G60A U92A C124A, -2.58.
Next, C3G A46U C72A G113C: -3.77; C3G U55C C72U G93A: -4.63.
Under C3U C40U G60U stands 0.0261; under C3G G17A G120C, -5.46; under C3U A5G C34U G61C C62G C94U U109A C115U, -6.29.
In the case of C3U A50C A74C U96G, the “polymerase ribozyme fitness (log ratio)” value was -1.84.
Next, C3U C11G C12A A50U C56G G113U: -6.33; C3A C102A U106C G120U C124U: -2.57.
Regarding C3G A43U, the “polymerase ribozyme fitness (log ratio)” value was -3.88.
With C3G U9C C13A C70G C89A U96C C101A G117C, the “polymerase ribozyme fitness (log ratio)” value is -5.88.
Next, C3G C4U A83U G122U C123U: -0.882; C3G A6C C49A C53U G61C C97U C101U: -3.42; C3A C8G C12A C13U C20G G35C C70G A118G C124A U132A: -6.19.
Under C3A G60A U112C stands 0.261.
In the case of C3U A27G G135U, the “polymerase ribozyme fitness (log ratio)” value is -5.83.
Next, C3A C8G A37G G93A: -0.343.
Next, C3U C56G: -0.409.
Under C3U A16C G17A U54C U78C A90C stands -2.6; under C3U A29U U109A, 0.179; under C3G G44U G45U C89A C94U A111U C123U U129C G135A, -4.23.
Regarding C3G C11U C97A G120C, the “polymerase ribozyme fitness (log ratio)” value is -5.66.
Next, C3A G48A A84G C114U: -3.87; C3A C13U C62U G113U: -4.41; C3U C40G G63C C115U: -2.66.
Next, C3U C62A C72U: -0.819; A2U G60A A91G C124U: -3.61.
On to C3U A6U C20G A37U C72U C82U G113A A119C U129C U133A, for which the “polymerase ribozyme fitness (log ratio)” value was -5.44.
With C3U C11A U78A, the “polymerase ribozyme fitness (log ratio)” value is -2.75.
Consider C3A C56A C89A C115U, for which the “polymerase ribozyme fitness (log ratio)” value was -3.79.
Under C3G A24G stands -3.73; under C3U C72A, -0.325.
Next, A2U U14G U106G G120A C124G: -3.26; C3U A43U C56G U81A A95U A111G G122A: -5.71; C3A U14G C62A A119U G120A: -2.14.
Under A2U G71U A74C stands -4.54.
With C3G C12G C62U, the “polymerase ribozyme fitness (log ratio)” value was -2.34.
Under C3G A95G stands -2.02.
Turning to C3G A18C C22A A26G G60U A95U G120A, the “polymerase ribozyme fitness (log ratio)” value was -4.84.
As for C3U C11G C12A A50U C56G A83U G93C G113U, the “polymerase ribozyme fitness (log ratio)” value was -5.9.
Under A2U G61A G127C stands -1.88.
Next, C3A G39C C72U U92A A111G: -5.51; C3G A50C C73A A95U: -2.64.
For the variant C3G G48C U87G U130C, the “polymerase ribozyme fitness (log ratio)” value was -1.16.
C3U A119G: the “polymerase ribozyme fitness (log ratio)” value is 0.367.
Regarding C3G C11G C97G C114A, the “polymerase ribozyme fitness (log ratio)” value is -4.68.
Next, A2U G120C G135A: 0.456; C3U C11U G48A C56U C89G C101U: -3.51; C3U C62U A74U C89G: -2.26.
On to C3A A29U, for which the “polymerase ribozyme fitness (log ratio)” value is -3.36.
Consider C3U C13U U59A, for which the “polymerase ribozyme fitness (log ratio)” value was -0.207.
For C3U C13U G57U C79U A100C, the “polymerase ribozyme fitness (log ratio)” value is -0.594.
Under C3G G36U C79U C89G C123G U133G stands -3.18.
Next, C3G A37U C62A A95U G120C: -3.27.
Under C3A G71C C114G stands -4.21.
As to C3A C114U, the “polymerase ribozyme fitness (log ratio)” value is -3.65.
Next, C3U C13U A41G G61U C79A C85U G120U G127C: -3.54.
Next, C3A C124A: -0.333; C3A C53U U55A C73A G117A: -4.29; C3A G44C C53U C123A: -1.67.
In the case of C3G C12G, the “polymerase ribozyme fitness (log ratio)” value was -0.885.
Next, C3G C40G C72U A121G U130G: -0.331; C3A G42A G57C G107U C114U G128U U130C: -4.37.
Next, C3U C22A U54C C72U C79U C82U A100U: -6.11; C3A A66C: -2.64; C3A G44U G63C: -3.25.
Next, C3U C22A A74U G77A U106C C114A: -4.34.
In the case of C3G C56U U92G C123A, the “polymerase ribozyme fitness (log ratio)” value is -3.5.
As to C3U A18U C89U G120C G122U, the “polymerase ribozyme fitness (log ratio)” value is -3.19.
For C3A U38A A121C U129A, the “polymerase ribozyme fitness (log ratio)” value was -0.064.
Turning to C3U C70A U78C A91C C97G A121U, the “polymerase ribozyme fitness (log ratio)” value is -6.74.
C3G G47C G52A U87A C124G: the “polymerase ribozyme fitness (log ratio)” value is -4.41.
Next, C3G C72G: -2.06; C3U C34A C73A: -2.99.
Next, C3U A41G C102A G120A: -3.46.
As to C3A C12A G58A A83C, the “polymerase ribozyme fitness (log ratio)” value is -2.19.
As for C3A U78A, the “polymerase ribozyme fitness (log ratio)” value was -1.96.
Take C3A U78C: the “polymerase ribozyme fitness (log ratio)” value was -0.717.
Take C3A C4U C72U C123G: the “polymerase ribozyme fitness (log ratio)” value is -0.302.
Next, C3A C72A G110U: -3.62.
Take C3U A43C C73A U87G: the “polymerase ribozyme fitness (log ratio)” value was -2.3.
With C3A G36C C70G G120A A121U, the “polymerase ribozyme fitness (log ratio)” value is -3.08.
Next, C3A C79U C124G: 0.849; A2U G93C: -3.65.
Next, C3A U21A G71U: -2.65; C3A C11U C49G C53A G60A C101A: -3.22.
Next, A2U U9G G47U C88U G113A: -4.58; C3G C12G C53A G61U C114G: -5.41; C3G G60C: -1.74.
Turning to A2U G58C C72G C88U, the “polymerase ribozyme fitness (log ratio)” value is -4.39.
C3G C97U: the “polymerase ribozyme fitness (log ratio)” value is -2.53.
Under C3G C11A G36C C64U stands -3.94; under C3U C56U G69C C76G C115U G127U, -4.79.
Under C3A C13G C89U G128C stands -3.62; under C3U C4A C53G C88U A90C C123A U130C, -0.356.
Under A2U U54C C115A stands -2.65; under C3A A18C U112C U130C, -0.927.
For C3G C49G, the “polymerase ribozyme fitness (log ratio)” value was -3.17.
Under C3U C56G C73U stands -1.31.
C3A C20A C49G A50C G61U: the “polymerase ribozyme fitness (log ratio)” value is -5.32.
Next, C3U C13G A90U: -1.11; C3U C53G C88A U112G U129A: -2.53; C3A G42U G48U G52U C64U C86U G113U U133G: -7.08.
Under C3A C53G stands -1.72; under C3A A66U G69U, -1.08; under C3U A91U G93C G113C G135U, -3.84.
Under C3A C53G C64U A118G C123U stands -1.11; under C3U C34A C53A C79U C88U C97U, -2.66.
For the variant C3A G120A U130C, the “polymerase ribozyme fitness (log ratio)” value worked out at 0.403.
Next, C3U A50G U55G G63A: -1.45.
Under C3U C49A G63A C80U G93A stands -5.66; under C3U C12U A46G A50G C101A C104U, -0.987.
